The values below come from the supplement of paper PMC11908140.

The chains are these.
B1: library; numbered along this chain (parent)
chain: MRKPRAAVGSGHRKQAASQEGRQKHAKNNSQAKPSACDGLARQPEEVVLQASVSSYHLFRDVAEVTAFRGSLLSWYDQEKRDLPWRRRAEDEMDLDRRAYAVWVSEVMLQQTQVATVINYYTGWMQKWPTLQDLASASLEEVNQLWAGLGYYSRGRRLQEGARKVVEELGGHMPRTAETLQQLLPGVGRYTAGAIASIAFGQATGVVDGNVARVLCRVRAIGADPSSTLVSQQLWGLAQQLVDPARPGDFNQAAMELGATVCTPQRPLCSQCPVESLCRARQRVEQEQLLASGSLSGSPDVEECAPNTGQCHLCLPPSEPWDQTLGVVNFPRKASRKPPREESSATCVLEQPGALGAQILLVQRPNSGLLAGLWEFPSVTWEPSEQLQRKALLQELQRWAGPLPATHLRHLGEVVHTFSHIKLTYQVYGLALEGQTPVTTVPPGARWLTQEEFHTAAVSTAMKKVFRVYQGQQPGTCMGSKRSQVSSPCSRKKPRMGQQVLDNFFRSHISTDAHSLNSAAQ
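Note: cells sorted at 72 h after reporter transfection.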

This data set covers variants of B1. The data set is described as follows: 8OG:A repair function score (normalized; synonymous = 0, nonsense = -1) (normalized log-likelihood score); higher = more repair activity (WT-like). The note with it: with 8OG:A DNA repair reporter (GFP) in HEK-293 MUTYH KO cells. An outline of the steps: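 Per-tile Rosace fitness scores were converted to a normalized repair function score anchored on synonymous and nonsense distributions. That scale puts synonymous medians at 0 and nonsense medians at -1. Variants with starting counts under 300 counts per million were discarded. Input came from sorting viable mCherry+ MUTYH knockout HEK-293 cells, carrying lentiviral MUTYH cDNA NNN codon-scan libraries in 10 pg/ml doxycycline and an 8OG:A GFP repair reporter, into GFP+ and GFP− bins at 72 h, three replicates per tile, followed by tile amplicon sequencing.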
Consider MRKPRAAVGSGHRKQAASQEGRQKHAKNNSQAKPSACDGLARQPEEVVLQASVSSYHLFRDVAEVTAFRGSLLSWYDQEKRDLPWRRRAEDEMDLDRRAYAVWVSEVMLQQTQVATVINYYTGWMQKWPTLQDLASASLEEVNQLWAGLGYYSRGRRLQEGARKVVEELGGHMPRTAETLQQLLPGVGRYTAGAIASIAFGQATGVVDGNVARVLCRVRAIGADPSSTLVSQQLWGLAQQLVDPARPGDFNQAAMELGATVCTPQRPLCSQCPVESLCRARQRVEQEQLLASGSLSGSPDVEECAPNTGQCHLCLPPSEPWDQTLGVVNFPRKASRKPPREESSATCVLEQPGALGAQILLVQRPNSGLLAGLWEFPSVTWEPSEQLQRKALLQELQRMAGPLPATHLRHLGEVVHTFSHIKLTYQVYGLALEGQTPVTTVPPGARWLTQEEFHTAAVSTAMKKVFRVYQGQQPGTCMGSKRSQVSSPCSRKKPRMGQQVLDNFFRSHISTDAHSLNSAAQ [W399M], for which the “8OG:A repair function score” value was -0.301. Consider MRKPRAAVGSGHRKQAASQEGRQKHAKNNSQAKPSACDGLARQPEEVVLQASVSSYHLFRDVAEVTAFRGSLLSWYDQEKRDLPWRRRAEDEMDLDRRAYAVWVSEVMLQQTQVATVINYYTGWMQKWPTLQDLASASLEEVNQLWAGLGYYSRGRRLQEGARKVVEELGGHMPRTAETLQQLLPGVGRYTAGAIASIAFGQATGVVDGNVARVLCRVRAIGADPSSTLVSQQLWGLAQQLVDPARPGDFNQAAMELGATVCTPQRPLCSQCPVESLCRARQRVEQEQLLASGSLSGSPDVEECAPNTGQCHLCLPPSEPWDQTLGVVNFPRKASRKPPREESSATCVLEQPGALGAQILLVQRPNSGLLAGLWEFPSVTWEPSEQLQRKALLQELQRKAGPLPATHLRHLGEVVHTFSHIKLTYQVYGLALEGQTPVTTVPPGARWLTQEEFHTAAVSTAMKKVFRVYQGQQPGTCMGSKRSQVSSPCSRKKPRMGQQVLDNFFRSHISTDAHSLNSAAQ [W399K], for which the “8OG:A repair function score” value was -0.616. The same measure for MRKPRAAVGSGHRKQAASQEGRQKHAKNNSQAKPSACDGLARQPEEVVLQASVSSYHLFRDVAEVTAFRGSLLSWYDQEKRDLPWRRRAEDEMDLDRRAYAVWVSEVMLQQTQVATVINYYTGWMQKWPTLQDLASASLEEVNQLWAGLGYYSRGRRLQEGARKVVEELGGHMPRTAETLQQLLPGVGRYTAGAIASIAFGQATGVVDGNVARVLCRVRAIGADPSSTLVSQQLWGLAQQLVDPARPGDFNQAAMELGATVCTPQRPLCSQCPVESLCRARQRVEQEQLLASGSLSGSPDVEECAPNTGQCHLCLPPSEPWDQTLGVVNFPRKASRKPPREESSATCVLEQPGALGAQILLVQRPNSGLLAGLWEFPSVTWEPSEQLQRKALLQELQRNAGPLPATHLRHLGEVVHTFSHIKLTYQVYGLALEGQTPVTTVPPGARWLTQEEFHTAAVSTAMKKVFRVYQGQQPGTCMGSKRSQVSSPCSRKKPRMGQQVLDNFFRSHISTDAHSLNSAAQ [W399N]: -0.463. As for MRKPRAAVGSGHRKQAASQEGRQKHAKNNSQAKPSACDGLARQPEEVVLQASVSSYHLFRDVAEVTAFRGSLLSWYDQEKRDLPWRRRAEDEMDLDRRAYAVWVSEVMLQQTQVATVINYYTGWMQKWPTLQDLASASLEEVNQLWAGLGYYSRGRRLQEGARKVVEELGGHMPRTAETLQQLLPGVGRYTAGAIASIAFGQATGVVDGNVARVLCRVRAIGADPSSTLVSQQLWGLAQQLVDPARPGDFNQAAMELGATVCTPQRPLCSQCPVESLCRARQRVEQEQLLASGSLSGSPDVEECAPNTGQCHLCLPPSEPWDQTLGVVNFPRKASRKPPREESSATCVLEQPGALGAQILLVQRPNSGLLAGLWEFPSVTWEPSEQLQRKALLQELQRIAGPLPATHLRHLGEVVHTFSHIKLTYQVYGLALEGQTPVTTVPPGARWLTQEEFHTAAVSTAMKKVFRVYQGQQPGTCMGSKRSQVSSPCSRKKPRMGQQVLDNFFRSHISTDAHSLNSAAQ [W399I], the “8OG:A repair function score” value is -0.15. The same measure for MRKPRAAVGSGHRKQAASQEGRQKHAKNNSQAKPSACDGLARQPEEVVLQASVSSYHLFRDVAEVTAFRGSLLSWYDQEKRDLPWRRRAEDEMDLDRRAYAVWVSEVMLQQTQVATVINYYTGWMQKWPTLQDLASASLEEVNQLWAGLGYYSRGRRLQEGARKVVEELGGHMPRTAETLQQLLPGVGRYTAGAIASIAFGQATGVVDGNVARVLCRVRAIGADPSSTLVSQQLWGLAQQLVDPARPGDFNQAAMELGATVCTPQRPLCSQCPVESLCRARQRVEQEQLLASGSLSGSPDVEECAPNTGQCHLCLPPSEPWDQTLGVVNFPRKASRKPPREESSATCVLEQPGALGAQILLVQRPNSGLLAGLWEFPSVTWEPSEQLQRKALLQELQRHAGPLPATHLRHLGEVVHTFSHIKLTYQVYGLALEGQTPVTTVPPGARWLTQEEFHTAAVSTAMKKVFRVYQGQQPGTCMGSKRSQVSSPCSRKKPRMGQQVLDNFFRSHISTDAHSLNSAAQ [W399H]: -0.291; for MRKPRAAVGSGHRKQAASQEGRQKHAKNNSQAKPSACDGLARQPEEVVLQASVSSYHLFRDVAEVTAFRGSLLSWYDQEKRDLPWRRRAEDEMDLDRRAYAVWVSEVMLQQTQVATVINYYTGWMQKWPTLQDLASASLEEVNQLWAGLGYYSRGRRLQEGARKVVEELGGHMPRTAETLQQLLPGVGRYTAGAIASIAFGQATGVVDGNVARVLCRVRAIGADPSSTLVSQQLWGLAQQLVDPARPGDFNQAAMELGATVCTPQRPLCSQCPVESLCRARQRVEQEQLLASGSLSGSPDVEECAPNTGQCHLCLPPSEPWDQTLGVVNFPRKASRKPPREESSATCVLEQPGALGAQILLVQRPNSGLLAGLWEFPSVTWEPSEQLQRKALLQELQRLAGPLPATHLRHLGEVVHTFSHIKLTYQVYGLALEGQTPVTTVPPGARWLTQEEFHTAAVSTAMKKVFRVYQGQQPGTCMGSKRSQVSSPCSRKKPRMGQQVLDNFFRSHISTDAHSLNSAAQ [W399L]: 0.1.
